The values that follow come from PMC13132546 (2026).

For test [1], the target named is T1, DYRK1A (recombinant, N-terminally biotinylated) (UniProt Q13627 1-763, biotin on the N-terminus (sortase labelling with a synthetic biotin-LPETGG peptide onto the N-terminal glycine left after TEV cleavage)). Put plainly: BLI.
The target of test [2] is T1, DYRK1A (recombinant, N-terminally …). Description: BLI; steady-state response analysis.

For orientation: koff means the first-order rate constant of dissociation. By Kd is commonly meant the free concentration of one partner at which half of the binding sites on the other are occupied at equilibrium, for simple one-to-one binding.

B1: FAM53C (recombinant) (natural protein)
chain: MITLITEQLQKQTLDELKCTRFSISLPLPDHADISNCGNSFQLVSEGASWRGLPHCSCAEFQDSLNFSYHPSGLSLHLRPPSRGNSPKEQPFSQVLRPEPPDPEKLPVPPAPPSKRHCRSLSVPVDLSRWQPVWRPAPSKLWTPIKHRGSGGGGGPQVPHQSPPKRVSSLRFLQAPSASSQCAPAHRPYSPPFFSLALAQDSSRPCAASPQSGSWESDAESLSPCPPQRRFSLSPSLGPQASRFLPSARSSPASSPELPWRPRGLRNLPRSRSQPCDLDARKTGVKRRHEEDPRRLRPSLDFDKMNQKPYSGGLCLQETAREGSSISPPWFMACSPPPLSASCSPTGGSSQVLSESEEEEEGAVRWGRQALSKRTLCQRDFGDLDLNLIEEN
On to B1, for which, in test [1], the koff worked out at 0.04 s⁻¹. Further, the Kd in test [2] was 3.3 µM.
